Data: article PMC10178846, “CERT1 mutations perturb human development by disrupting sphingolipid homeostasis” (The Journal of Clinical Investigation, 2023)
Where “and” joins values, the source holds several entries; their conditions need not be identical. Equal entries are not always repeated.

Columns and labels:
[1] = molecular target: the molecule itself; test: native MS; native MS of purified recombinant CERT 151-309 WT; deconvoluted mass spectrum
[2] = molecular target: the molecule itself; test: SEC-MALS; size-exclusion chromatography coupled to multiangle light scattering of recombinant CERT constructs; absolute molar mass

B1: CERT central core domain (CCD), purified recombinant CERT 151-309 WT (domain or fragment, human, UniProt Q9Y5P4-1 151-309, looked up)
chain: FKKGHSLREKLAEMETFRDILCRQVDTLQKYFDACADAVSKDELQRDKVVEDDEDDFPTTRSDGDFLHSTNGNKEKLFPHVTPKGINGIDFKGEAITFKATTAGILATLSHCIELMVKREDSWQKRLDKETEKKRRTEEAYKNAMTELKKKSHFGGPDY
notes: human CERT (CERT1 isoform 1, CERTL), residues 151-309, central core domain; Theoretical MW is printed as 18.5 kDa; also called CERT CCD; source: recombinant, purified
stoichiometry N [1]: 2 and 4

B2: CERT construct encompassing the PH plus CCD domains (aa 1-341) (domain or fragment, human, UniProt Q9Y5P4-1 1-341, looked up)
chain: MSDNQSWNSSGSEEDPETESGPPVERCGVLSKWTNYIHGWQDRWVVLKNNALSYYKSEDETEYGCRGSICLSKAVITPHDFDECRFDISVNDSVWYLRAQDPDHRQQWIDAIEQHKTESGYGSESSLRRHGSMVSLVSGASGYSATSTSSFKKGHSLREKLAEMETFRDILCRQVDTLQKYFDACADAVSKDELQRDKVVEDDEDDFPTTRSDGDFLHSTNGNKEKLFPHVTPKGINGIDFKGEAITFKATTAGILATLSHCIELMVKREDSWQKRLDKETEKKRRTEEAYKNAMTELKKKSHFGGPDYEEGPNSLINEEEFFDAVEAALDRQDKIEEQSQ
notes: human CERT (CERT1 isoform 1, CERTL), residues 1-341, PH plus CCD domains
stoichiometry N [2]: 2

B3: ceramide transporter CERT, recombinant full-length (CERT1 isoform 1, CERTL) (natural protein, human, UniProt Q9Y5P4-1 1-624, looked up)
chain: MSDNQSWNSSGSEEDPETESGPPVERCGVLSKWTNYIHGWQDRWVVLKNNALSYYKSEDETEYGCRGSICLSKAVITPHDFDECRFDISVNDSVWYLRAQDPDHRQQWIDAIEQHKTESGYGSESSLRRHGSMVSLVSGASGYSATSTSSFKKGHSLREKLAEMETFRDILCRQVDTLQKYFDACADAVSKDELQRDKVVEDDEDDFPTTRSDGDFLHSTNGNKEKLFPHVTPKGINGIDFKGEAITFKATTAGILATLSHCIELMVKREDSWQKRLDKETEKKRRTEEAYKNAMTELKKKSHFGGPDYEEGPNSLINEEEFFDAVEAALDRQDKIEEQSQSEKVRLHWPTSLPSGDAFSSVGTHRFVQKPYSRSSSMSSIDLVSASDDVHRFSSQVEEMVQNHMTYSLQDVGGDANWQLVVEEGEMKVYRREVEENGIVLDPLKATHAVKGVTGHEVCNYFWNVDVRNDWETTIENFHVVETLADNAIIIYQTHKRVWPASQRDVLYLSVIRKIPALTENDPETWIVCNFSVDHDSAPLNNRCVRAKINVAMICQTLVSPPEGNQEISRDNILCKITYVANVNPGGWAPASVLRAVAKREYPKFLKRFTSYVQEKTAGKPILF
notes: human ceramide transporter CERT (CERT1), isoform 1 (CERTL), NP_005704; full-length recombinant protein; also called CERT WT; source: recombinant
stoichiometry N [2]: 2
